Reference: patent US7378087

Columns and labels:
[1] = target: H-2K^b MHC class I molecule (mouse) (UniProt P01901); test: FACS on RMA-S cells; IFN -, peptide -, hβ2m -
[2] = target: H-2K^b MHC class I molecule (mouse) (UniProt P01901); test: FACS on RMA cells; IFN -, peptide -, hβ2m -
[3] = target: H-2K^b MHC class I molecule (mouse) (UniProt P01901); test: FACS on CMT.64 cells; IFN * (so in the source), peptide +, hβ2m +
[4] = target: H-2K^b MHC class I molecule (mouse) (UniProt P01901); test: FACS on RMA-S cells; IFN -, peptide +, hβ2m +
[5] = target: H-2K^b MHC class I molecule (mouse) (UniProt P01901); test: FACS on RMA-S cells; IFN +, peptide +, hβ2m +
[6] = target: H-2K^b MHC class I molecule (mouse) (UniProt P01901); test: FACS on RMA-S cells; IFN +, peptide -, hβ2m -
[7] = target: H-2K^b MHC class I molecule (mouse) (UniProt P01901); test: FACS on RMA cells; IFN +, peptide +, hβ2m +
[8] = target: H-2K^b MHC class I molecule (mouse) (UniProt P01901); test: FACS on RMA-S cells; IFN +, peptide +, hβ2m -
[9] = target: H-2K^b MHC class I molecule (mouse) (UniProt P01901); test: FACS on RMA cells; IFN +, peptide -, hβ2m -
[10] = target: H-2K^b MHC class I molecule (mouse) (UniProt P01901); test: FACS on CMT.64 cells; IFN -, peptide -, hβ2m -
[11] = target: H-2K^b MHC class I molecule (mouse) (UniProt P01901); test: FACS on RMA cells; IFN -, peptide +, hβ2m +
[12] = target: H-2K^b MHC class I molecule (mouse) (UniProt P01901); test: FACS on RMA cells; IFN +, peptide +, hβ2m -
[13] = target: H-2K^b MHC class I molecule (mouse) (UniProt P01901); test: FACS on CMT.64 cells; IFN -, peptide +, hβ2m +
[14] = target: H-2K^b MHC class I molecule (mouse) (UniProt P01901); test: FACS on RMA cells; IFN +, peptide -, hβ2m +
[15] = target: H-2K^b MHC class I molecule (mouse) (UniProt P01901); test: FACS on RMA-S cells; IFN +, peptide -, hβ2m +
[16] = target: H-2K^b MHC class I molecule (mouse) (UniProt P01901); test: FACS on CMT.64 cells; IFN +, peptide -, hβ2m -

Sequence of UniProt P01901 (P01901 22-305 limits assumed): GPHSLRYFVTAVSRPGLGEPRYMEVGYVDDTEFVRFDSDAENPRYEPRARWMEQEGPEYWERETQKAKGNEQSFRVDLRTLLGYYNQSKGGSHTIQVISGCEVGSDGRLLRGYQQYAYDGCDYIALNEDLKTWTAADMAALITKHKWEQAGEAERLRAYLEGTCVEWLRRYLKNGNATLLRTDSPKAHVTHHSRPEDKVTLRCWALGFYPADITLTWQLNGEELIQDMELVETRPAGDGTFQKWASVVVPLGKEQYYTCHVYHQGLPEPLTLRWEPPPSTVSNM

fluorescence units (arbitrary fluorescence units) [1]: 12 | fluorescence units (arbitrary fluorescence units) [2]: 164 | fluorescence units (arbitrary fluorescence units) [3]: 35 | fluorescence units (arbitrary fluorescence units) [4]: 70 | fluorescence units (arbitrary fluorescence units) [5]: 41 | fluorescence units (arbitrary fluorescence units) [6]: 12 | fluorescence units (arbitrary fluorescence units) [7]: 780 | fluorescence units (arbitrary fluorescence units) [8]: 10 | fluorescence units (arbitrary fluorescence units) [9]: 346 | fluorescence units (arbitrary fluorescence units) [10]: 5 | fluorescence units (arbitrary fluorescence units) [11]: 242 | fluorescence units (arbitrary fluorescence units) [12]: 606 | fluorescence units (arbitrary fluorescence units) [13]: 8 | fluorescence units (arbitrary fluorescence units) [14]: 438 | fluorescence units (arbitrary fluorescence units) [15]: 10 | fluorescence units (arbitrary fluorescence units) [16]: 26
Substance: 142-23.3 anti H-2 K^b monoclonal antibody
